{"source": "paper PMC5864754", "about": "“Cryo-EM structure of the polycystic kidney disease-like channel PKD2L1” (Nature Communications, 2018)", "proteins": {"B1": {"name": "PKD2L1 (residues 64–629) (domain or fragment, mouse, UniProt A2A259 64-629, looked up)", "chain": "TLVSSCCLHICRSIRGLWGTTLTENTAENRELYVKTTLRELVVYIVFLVDICLLTYGMTSSSAYYYTKVMSELFLHTPSDSGVSFQTISSMSDFWDFAQGPLLDSLYWTKWYNNQSLGRGSHSFIYYENLLLGAPRLRQLRVRNDSCVVHEDFREDILNCYDVYSPDKEDQLPFGPQNGTAWTYHSQNELGGSSHWGRLTSYSGGGYYLDLPGSRQASAEALQGLQEGLWLDRGTRVVFIDFSVYNANINLFCILRLVVEFPATGGTIPSWQIRTVKLIRYVNNWDFFIVGCEVVFCVFIFYYVVEEILEIHLHRLRYLSSVWNILDLVVILLSIVAVGFHIFRTLEVNRLMGKLLQQPDTYADFEFLAFWQTQYNNMNAVNLFFAWIKIFKYISFNKTMTQLSSTLARCAKDILGFAIMFFIVFFAYAQLGYLLFGTQVENFSTFVKCIFTQFRIILGDFDYNAIDNANRILGPVYFVTYVFFVFFVLLNMFLAIINDTYSEVKEELAGQKDQLQLSDFLKQSYNKTLLRLRLRKERVSDVQKVLKGGEPEIQFEDFTSTLRELG", "modifications": "oligosaccharides identified on N241 and N207; glycosylation site N177", "notes": "Mus musculus PKD2L1, residues 64-629; lacks the EF hand and the coiled-coil domain; residues 101-563 are visible in the structure; Homotetrameric channel; Cloned in a pCAG vector; also called PKD2L1_64–629; truncated PKD2L1; source: exchanged into amphipols"}}, "target": "the molecule itself", "assay": "cryo-EM structure; purified PKD2L1 (64-629) in amphipols, 20 mM HEPES pH 7.5, 150 mM NaCl, about 5 mg/ml; C4 symmetry applied; 3.38 Å"}
{"protein": "B1", "values": [{"measurement": "stoichiometry N", "result": 4}]}
